Values of other authors, collected in article PMC9304195.

Biological target: UGGT (Homo sapiens) (UniProt Q9NYU2)
Sequence (Q9NYU2 43-1555): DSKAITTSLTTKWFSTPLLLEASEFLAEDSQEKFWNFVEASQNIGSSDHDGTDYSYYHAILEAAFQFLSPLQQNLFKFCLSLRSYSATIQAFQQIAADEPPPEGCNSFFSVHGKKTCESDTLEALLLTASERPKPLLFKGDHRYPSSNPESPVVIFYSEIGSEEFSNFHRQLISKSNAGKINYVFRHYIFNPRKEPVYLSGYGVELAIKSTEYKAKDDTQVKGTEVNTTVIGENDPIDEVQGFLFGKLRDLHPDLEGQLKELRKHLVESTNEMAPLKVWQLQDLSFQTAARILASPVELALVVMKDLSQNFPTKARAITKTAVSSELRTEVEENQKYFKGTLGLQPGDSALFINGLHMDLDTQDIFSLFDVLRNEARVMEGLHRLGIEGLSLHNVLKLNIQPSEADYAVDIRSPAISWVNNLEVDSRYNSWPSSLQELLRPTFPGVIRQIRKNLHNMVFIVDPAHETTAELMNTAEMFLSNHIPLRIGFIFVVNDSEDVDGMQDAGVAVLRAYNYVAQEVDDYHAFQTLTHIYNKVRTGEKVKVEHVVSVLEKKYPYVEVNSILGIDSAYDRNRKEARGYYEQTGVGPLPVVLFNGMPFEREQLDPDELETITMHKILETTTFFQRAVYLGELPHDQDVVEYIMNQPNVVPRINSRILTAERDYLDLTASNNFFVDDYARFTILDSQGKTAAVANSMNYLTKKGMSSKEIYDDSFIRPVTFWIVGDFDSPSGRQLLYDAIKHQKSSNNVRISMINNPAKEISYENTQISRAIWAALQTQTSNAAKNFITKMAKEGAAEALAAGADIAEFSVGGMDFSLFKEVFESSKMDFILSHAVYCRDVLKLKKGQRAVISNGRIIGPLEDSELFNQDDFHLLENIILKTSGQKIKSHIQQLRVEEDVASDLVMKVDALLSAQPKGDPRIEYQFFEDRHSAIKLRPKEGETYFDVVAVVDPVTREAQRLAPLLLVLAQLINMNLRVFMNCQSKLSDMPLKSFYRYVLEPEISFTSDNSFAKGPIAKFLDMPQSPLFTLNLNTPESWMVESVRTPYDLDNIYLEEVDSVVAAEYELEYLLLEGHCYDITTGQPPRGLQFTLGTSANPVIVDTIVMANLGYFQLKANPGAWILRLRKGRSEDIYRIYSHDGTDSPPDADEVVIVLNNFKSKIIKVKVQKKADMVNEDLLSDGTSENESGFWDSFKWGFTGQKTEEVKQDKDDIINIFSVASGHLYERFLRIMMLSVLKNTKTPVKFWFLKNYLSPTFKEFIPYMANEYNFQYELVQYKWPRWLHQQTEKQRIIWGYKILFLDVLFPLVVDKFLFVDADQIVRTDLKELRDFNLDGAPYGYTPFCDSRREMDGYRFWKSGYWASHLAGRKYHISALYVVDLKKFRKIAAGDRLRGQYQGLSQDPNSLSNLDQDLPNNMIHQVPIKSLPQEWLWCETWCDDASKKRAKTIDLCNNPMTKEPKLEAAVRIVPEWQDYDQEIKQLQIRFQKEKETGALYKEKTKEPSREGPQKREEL

Sequence of SELENOF (O60613 32-165): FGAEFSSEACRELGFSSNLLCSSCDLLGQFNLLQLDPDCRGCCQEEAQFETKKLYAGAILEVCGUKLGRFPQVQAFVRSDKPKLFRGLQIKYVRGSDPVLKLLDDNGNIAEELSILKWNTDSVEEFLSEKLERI

Kd: 20 nM
Substance: SELENOF (from UniProt O60613)
